Laboratory results from patent US20220241413A1, “COMBINATION THERAPIES USING CD-38 ANTIBODIES” (Takeda Pharmaceutical Company Limited, priority 2019, published 2022).

Legend:
[1] = AB79-1501 study, AB79 monotherapy SC in RRMM: safety; type: in vivo
Description: Patients eligible for study enrollment are refractory or intolerant to at least one PI and at least one IMiD, and have received either ≥3 prior therapies or ≥2 prior therapies, if one of those therapies included a combination of a PI and an IMiD. In the phase 1b dose-escalation part of the study, patients who were previously exposed to an anti-CD38 agent are eligible; however, this criterion is not required. In the phase 2a expansion part of the study, patients were also refractory to at least one anti-CD38 monoclonal therapy at any time during prior treatment. The study was designed to evaluate the safety and tolerability of subcutaneously administered AB79 monotherapy in patients with RRMM, to determine the recommended phase 2 dose (RP2D), and to provide a preliminary assessment of its single-agent activity against RRMM, including in patients who are refractory to daratumumab. Parameters such as safety, tolerability, pharmacokinetics (PK), pharmacodynamics, and disease response were assessed.
Clinical safety data includes that from patients who received a single dose and from patients who received multiple doses in multiple cycles followed by treatment-free periods. Based on the mechanism of action (MOA) of AB79 and the subcutaneous (SC) route of administration, potential adverse events (AEs) included systemic reaction (e.g., cytokine release syndrome (CRS) and hypersensitivity reaction), hematologic effects (e.g., reduced platelet, lymphocyte, neutrophil, and RBC counts), infections (e.g., bacterial and/or viral infections secondary to immune suppression), and injection site reaction (i.e., erythema or tenderness).

[2] = AB79-1002 phase 1b study, AB79 with LenDex or VRd in NDMM: safety; type: in vivo
Description: This is a Phase 1b, open-label, multicenter study to evaluate the safety, efficacy, tolerability, and pharmacokinetics (PK) of AB79 when added to 1 of 2 standard backbone regimens (lenalidomide plus dexamethasone [LenDex] or bortezomib [Velcade] plus lenalidomide and dexamethasone [VRd]) in adult patients with newly diagnosed multiple myeloma (NDMM) for whom stem cell transplantation (SCT) is not planned as initial therapy. The dose and schedule for the backbone regimens (LenDex and VRd) are given in accordance with product labeling or standard medical practice. Treatment cycles are 28 days until disease progression (PD) or unacceptable toxicity occurs. Treatment may be discontinued for other reasons listed below. AB79 is supplied by the sponsor. Bortezomib, dexamethasone, and lenalidomide are standard-of-care agents that are supplied from commercial sources.
300 mg of AB79 is administered subcutaneously once weekly for 8 weeks (8 doses), once every 2 weeks for 16 weeks (8 doses), and once every 4 weeks thereafter until PD (in combination with backbone therapy). Backbone therapies (LenDex or VRd) are dosed in accordance with product labeling/local institutional practices. VRd is given with bortezomib weekly×3 weeks and LenDex in a standard 28 day cycle. Patients are evaluated from first dose of AB79 until 30 days after PD or until protocol-defined treatment discontinuation criteria are met.
Changes in clinical laboratory parameters (standard hematology and chemistry), vital sign, electrocardiogram (ECG) monitoring, and Eastern Cooperative Oncology Group (ECOG) performance status that are judged by the investigator as clinically significant are recorded both on the source documentation and in the electronic case report (eCRF) as an AE. Toxicities that occur during the DLT evaluation period are used for the purposes of defining DLT and for subsequent cohort expansion or dose modification decisions. DLTs are based on AB79-related toxicities.
The study was designed to determine the recommended phase 2 dose (RP2D) and to provide a preliminary assessment of the AB79 combinations against NDMM. Parameters such as safety, tolerability, pharmacokinetics (PK), pharmacodynamics (PD), and disease response were assessed.

[3] = monotherapy SC, total population, 45-600 mg
[4] = AB79 300 or 600 mg with LenDex or VRd, 10 patients enrolled

Substance: AB79: anti-CD38 monoclonal IgG1 antibody; heavy chain SEQ ID NO:11, light chain SEQ ID NO:12
- infusion-related reactions (IRRs) ([1]; SC, dosed up to 600 mg): have not been observed
- patients with AEs that led to study discontinuation ([1]; both reported as not related to AB79): Two
- injection site reactions ([1]; monotherapy SC): < 0.25%
- share of AEs overall that were Grade 1 or 2 ([1]; monotherapy SC): 55%
- systemic reactions ([1]; monotherapy SC): no systemic reactions
- TEAE regardless of causality: abdominal distension [1, 3]: 12%
- TEAE regardless of causality: anemia [1, 3]: 15%
- TEAE regardless of causality: back pain [1, 3]: 12%
- TEAE regardless of causality: cough [1, 3]: 10%
- TEAE regardless of causality: diarrhea [1, 3]: 17%
- TEAE regardless of causality: fatigue [1, 3]: 27%
- TEAE regardless of causality: headache [1, 3]: 15%
- TEAE regardless of causality: hypertension [1, 3]: 12%
- TEAE regardless of causality: insomnia [1, 3]: 22%
- TEAE regardless of causality: nausea [1, 3]: 17%
- TEAE regardless of causality: neutropenia [1, 3]: 12%
- TEAE regardless of causality: pneumonia [1, 3]: 10%
- TEAE regardless of causality: upper respiratory infection [1, 3]: 27%
- dose-limiting toxicities (DLTs) ([1]; monotherapy cohorts): no DLTs
- maximum tolerated dose (MTD) ([1]; monotherapy cohorts): has not been identified
- drug-related SAEs (Diverticulitis) ([1]; patient with past medical history of diverticulitis): One
- TEAE regardless of causality: abdominal pain [2, 4]: 2 patients
- TEAE regardless of causality: chills [2, 4]: 2 patients
- TEAE regardless of causality: decreased lymphocyte count [2, 4]: 5 patients
- TEAE regardless of causality: diarrhea [2, 4]: 3 patients
- TEAE regardless of causality: dysgeusia [2, 4]: 2 patients
- TEAE regardless of causality: fatigue [2, 4]: 2 patients
- TEAE regardless of causality: muscle spasms [2, 4]: 2 patients
- TEAE regardless of causality: nausea [2, 4]: 2 patients
- TEAE regardless of causality: neutropenia [2, 4]: 2 patients
- TEAE regardless of causality: peripheral edema [2, 4]: 2 patients
- TEAE regardless of causality: sinusitis [2, 4]: 2 patients
- dose-limiting toxicities (DLTs) ([2]; AB79 with LenDex or VRd): No DLTs
- drug-related serious AEs, AEs that resulted in any drug discontinuation, or on-study deaths ([2]; AB79 with LenDex or VRd): no
